Experimental data as given in article PMC8924275, “A peroxisomal heterodimeric enzyme is involved in benzaldehyde synthesis in plants” (Nature Communications, 2022).

Tests used:
[1] = molecular target: purified recombinant PhBSβ (from pMAL-c5X, MBP tag) (Petunia hybrida); assay: SEC; purified recombinant proteins at ~1 mg/mL on Superdex 200 Increase 10/300 GL in phosphate-buffered saline
[2] = molecular target: purified recombinant tomato (Solanum lycopersicum) benzaldehyde synthase α subunit (SlBSα) (Solanum lycopersicum (tomato))
AtBS = molecular target: T1, AtBS (Arabidopsis thaliana, UniProt F4JFB8+Q9SG99); assay: HPLC-DAD detection of benzaldehyde, Michaelis-Menten fit; format: biochemical; conditions: 4 mM NADPH; 50 mM Bis-Tris pH 6.5; 28 °C; α:β 1:1
T1 construct: gene SDRD; CDS of both subunits from flower cDNA in pMAL-c5X (MBP-tagged), E. coli; amylose resin after 1:1 mixing; heterodimer
T1 sequence (F4JFB8 1-280): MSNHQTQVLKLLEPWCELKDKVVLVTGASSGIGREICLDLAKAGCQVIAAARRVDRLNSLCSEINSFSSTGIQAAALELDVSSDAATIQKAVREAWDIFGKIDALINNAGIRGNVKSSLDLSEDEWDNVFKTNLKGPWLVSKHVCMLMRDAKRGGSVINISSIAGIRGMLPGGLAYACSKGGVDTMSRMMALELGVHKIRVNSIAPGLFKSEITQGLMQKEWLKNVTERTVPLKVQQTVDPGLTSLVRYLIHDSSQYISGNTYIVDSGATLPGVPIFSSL
T1 sequence (Q9SG99 1-266): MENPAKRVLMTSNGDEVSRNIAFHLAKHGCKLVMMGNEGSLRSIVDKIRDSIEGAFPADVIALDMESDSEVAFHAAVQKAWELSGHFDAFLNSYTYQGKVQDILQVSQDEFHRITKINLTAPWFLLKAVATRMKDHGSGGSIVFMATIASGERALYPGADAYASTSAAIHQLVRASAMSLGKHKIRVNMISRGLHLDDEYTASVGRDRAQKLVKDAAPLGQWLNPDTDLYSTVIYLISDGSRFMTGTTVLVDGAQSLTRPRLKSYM
From the text: HPLC-DAD detection of benzaldehyde, Michaelis-Menten fit on AtBS

[3] = molecular target: purified recombinant Arabidopsis thaliana benzaldehyde synthase α subunit (AtBSα) (Arabidopsis thaliana)
[4] = test system: CC(C)(COP(=O)(O)OP(=O)(O)OC[C@H]1O[C@@H](n2cnc3c(N)ncnc32)[C@H](O)[C@@H]1OP(=O)(O)O)[C@@H](O)C(=O)NCCC(=O)NCCSC(=O)c1ccccc1; assay: purified protein; conditions: 4 mM NADPH, 50 mM Bis-Tris pH 6.5, 28 °C, α:β 1:1
From the text: HPLC-DAD detection of benzaldehyde, Michaelis-Menten fit on PdBS

[5] = molecular target: purified recombinant Arabidopsis thaliana benzaldehyde synthase β subunit (AtBSβ) (Arabidopsis thaliana); assay: SEC; purified recombinant proteins at ~1 mg/mL on Superdex 200 Increase 10/300 GL in phosphate-buffered saline

Q: For “purified recombinant PhBSβ (from pMAL-c5X, MBP tag) (natural protein)”, which stoichiometry N [1] is on record?
A: The stoichiometry N was 4.

Q: And the apparent BS activity of the cross-species hybrid SlBSα-PhBSβ compared with SlBS (fold lower than SlBS) [2]?
A: Its apparent BS activity of the cross-species hybrid SlBSα-PhBSβ compared with SlBS (fold lower than SlBS) is 6.5.

Q: For `CC(C)(COP(=O)(O)OP(=O)(O)OC[C@H]1O[C@@H](n2cnc3c(N)ncnc32)[C@H](O)[C@@H]1OP(=O)(O)O)[C@@H](O)C(=O)NCCC(=O)NCCSC(=O)c1ccccc1` [benzoyl-CoA], which Km (AtBS) is on record?
A: The Km was 243 ± 28.2 µM.

Q: For “purified recombinant tomato (Solanum lycopersicum) benzaldehyde synthase β subunit (SlBSβ) (natural protein)”, which apparent BS activity of the cross-species hybrid AtBSα-SlBSβ relative to AtBS (fold higher than AtBS) [3] is on record?
A: Its apparent BS activity of the cross-species hybrid AtBSα-SlBSβ relative to AtBS (fold higher than AtBS) is 4.6.

Q: For “purified recombinant almond (Prunus dulcis) benzaldehyde synthase β subunit (PdBSβ) (natural protein)”, which apparent BS activity of the cross-species hybrid AtBSα-PdBSβ relative to AtBS (fold higher than AtBS) [3] is on record?
A: Its apparent BS activity of the cross-species hybrid AtBSα-PdBSβ relative to AtBS (fold higher than AtBS) is 7.8.

Q: What about the apparent BS activity of the cross-species hybrid SlBSα-PdBSβ compared with SlBS (fold higher than SlBS) [2] of the same compound?
A: The apparent BS activity of the cross-species hybrid SlBSα-PdBSβ compared with SlBS (fold higher than SlBS) was 2.7.

Q: For PdBS (Prunus dulcis), which Km [4] is on record?
A: Its Km is 629.4 ± 67.7 µM.

Q: What about the Vmax [4] of the same compound?
A: The Vmax was 2.12 µmol/min/mg.

Q: And the kcat [4]?
A: Its kcat is 5.26 ± 0.2 s⁻¹.

Q: What about the kcat/Km [4] of the same compound?
A: Its kcat/Km is 8400 ± 1000 M⁻¹ s⁻¹.

Q: How did the stoichiometry N [5] turn out when “purified recombinant Arabidopsis thaliana benzaldehyde synthase β subunit (AtBSβ) (natural protein)” was run?
A: Its stoichiometry N is 4.
